Measured values taken from US7414023 (dated 2008).
Bridge positions count the residues as written; N and C are the ends. Ends that are not written are not given here.

Experiments:
[1] = molecular target: T1, PSA (human, UniProt P07288); assay: SPR, 10 uM Zn2+
[2] = molecular target: T2, cathepsin G (human, UniProt P08311); assay: other, IFMA
T2 chain: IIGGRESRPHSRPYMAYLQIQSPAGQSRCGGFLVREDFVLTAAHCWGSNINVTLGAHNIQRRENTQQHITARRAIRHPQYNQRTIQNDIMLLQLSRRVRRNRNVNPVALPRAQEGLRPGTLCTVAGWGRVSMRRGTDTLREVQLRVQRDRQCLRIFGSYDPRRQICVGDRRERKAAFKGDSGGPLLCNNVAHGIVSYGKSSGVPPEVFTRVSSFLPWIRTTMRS

[3] = molecular target: hK2 (human, UniProt P20151); assay: other, IFMA
[4] = molecular target: PSA-API complex (human, UniProt P07288); assay: other, IFMA
[5] = molecular target: trypsin; assay: other, IFMA
[6] = molecular target: T1, PSA; assay: SPR, 0 uM Zn2+
[7] = molecular target: T1, PSA; assay: competition, IFMA with free PSA
[8] = molecular target: T1, PSA; assay: SPR, 1 uM Zn2+
[9] = molecular target: PSA-ACT complex (human, UniProt P07288); assay: other, IFMA
[10] = molecular target: T1, PSA; assay: SPR, 30 uM Zn2+
[11] = molecular target: T1, PSA; assay: SPR
[12] = molecular target: T1, PSA; assay: other, IFMA

Chain of hK2 (P20151 25-261): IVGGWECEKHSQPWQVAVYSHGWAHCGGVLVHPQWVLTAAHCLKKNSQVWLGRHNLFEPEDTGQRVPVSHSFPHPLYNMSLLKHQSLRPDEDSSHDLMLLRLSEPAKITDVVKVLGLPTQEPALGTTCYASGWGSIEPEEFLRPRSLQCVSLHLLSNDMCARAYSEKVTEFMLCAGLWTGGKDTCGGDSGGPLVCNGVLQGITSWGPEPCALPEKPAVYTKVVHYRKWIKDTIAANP

## CVFTSDYAFC (disulfide 1-10 (inferred); also: GST fusion, site not given here) [GST-A-1]
[1]
  Kd: 1400 nM
[2]
  binding result: no binding
[3]
  binding result: no binding
[4]
  binding result: no binding
[5]
  binding result: no binding
[6]
  Kd: 7800 nM
[7]
  IC50: 3.3 nM
[8]
  Kd: 2600 nM
[9]
  binding result: no binding
[10]
  Kd: 1000 nM
[11]
  Kd: 7800 nM

## CLSTCAQSCRISC (also: GST fusion, disulfide pairing not given here) [GST-D-1]
[12]
  binding result: no binding

## CVAYCIEHHCWTC (disulfide 1-13, 5-10; also: GST fusion, site not given here) [GST-C-4]
[2]
  binding result: no binding
[3]
  binding result: no binding
[4]
  binding result: no binding
[5]
  binding result: no binding
[7]
  IC50: 0.7 nM
[9]
  binding result: no binding
[10]
  Kd: 860 nM

## CVFAHNYDYLVC (disulfide 1-12 (inferred); also: GST fusion, site not given here) [GST-B-2]
[1]
  Kd: 600 nM
[2]
  binding result: no binding
[3]
  binding result: no binding
[4]
  binding result: no binding
[5]
  binding result: no binding
[6]
  Kd: 3500 nM
[7]
  IC50: 1 nM
[8]
  Kd: 3100 nM
[9]
  binding result: no binding
[10]
  Kd: 800 nM
[11]
  Kd: 3500 nM
